Test results published in IntAct's records for PubMed 11447112.

Biological target: gapa_dicdi gapA (UniProt O00899)
Sequence (O00899 whole entry): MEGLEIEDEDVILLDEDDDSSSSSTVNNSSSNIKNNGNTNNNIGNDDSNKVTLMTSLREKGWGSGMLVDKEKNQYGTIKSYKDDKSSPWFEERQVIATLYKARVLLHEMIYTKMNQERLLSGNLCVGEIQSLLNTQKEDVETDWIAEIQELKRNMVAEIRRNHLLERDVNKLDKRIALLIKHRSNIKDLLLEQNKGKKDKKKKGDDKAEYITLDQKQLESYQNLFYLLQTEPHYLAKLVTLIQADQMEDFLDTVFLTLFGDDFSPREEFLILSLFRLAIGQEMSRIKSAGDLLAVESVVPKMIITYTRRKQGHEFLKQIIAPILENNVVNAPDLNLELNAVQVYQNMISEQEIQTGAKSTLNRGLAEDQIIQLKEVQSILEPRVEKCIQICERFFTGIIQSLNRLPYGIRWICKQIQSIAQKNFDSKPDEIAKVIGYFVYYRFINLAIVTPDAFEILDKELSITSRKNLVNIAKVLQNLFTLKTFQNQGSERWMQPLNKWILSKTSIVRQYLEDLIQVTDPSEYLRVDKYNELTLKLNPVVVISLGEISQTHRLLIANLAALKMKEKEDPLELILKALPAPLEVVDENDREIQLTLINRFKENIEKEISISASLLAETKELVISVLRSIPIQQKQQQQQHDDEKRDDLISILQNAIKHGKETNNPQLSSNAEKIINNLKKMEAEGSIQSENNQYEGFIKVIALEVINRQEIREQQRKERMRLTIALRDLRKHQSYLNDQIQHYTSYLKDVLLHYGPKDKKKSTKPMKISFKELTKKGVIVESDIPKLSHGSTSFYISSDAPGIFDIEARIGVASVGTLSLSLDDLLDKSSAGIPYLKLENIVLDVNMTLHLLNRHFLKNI

“Rho-related protein rac1A (Dictyostelium discoideum (Slime mold)), P34144 G12N” was tested, and the “effect of a mutation on the interaction” value was “disrupting interaction”.
